Measured values taken from PMC12187079 (Nature, 2024).

Key:
Experiment in all cases: immunostaining of cells or tissue
Conditions in all cases: one partner purified
BANAL-20-52 NTD-mFc = BANAL-20-52 NTD-mFc (Bat coronavirus BANAL-20-52/Laos/2020 …)
SARS-CoV-2 NTD-mFc = SARS-CoV-2 NTD-mFc (SARS-CoV-2 Wuhan-Hu-1 (NC_045512))
RaTG13 NTD-mFc = RaTG13 NTD-mFc (Bat coronavirus RaTG13 (MN996532))

Measured: binding result

B1: S2L20-CVR (receptor)
VH: EVQLVESGGGVVQPGGSLRLSCAASGFTFNSYGMHWVRQAPGKGLEWVAFIRYDGGNKYYADSVKGRFTISRDNSKNTLYLQMKSLRAEDTAVYYCANLKDSRYSGSYYDYWGQGTLVTVS
VL: not shown
notes: also called HEK293T-S2L20-CVR; source: HEK293T, stably expressing (lentiviral transduction), on cells
binds: all assays above
